The values below come from the Human Domainome abundance scans (Beltran et al. 2025).

First the molecules themselves.
B1: Serine/threonine-protein kinase A-Raf, residues 21 to 89; numbered along this chain, P10398 (parent)
chain: VKVYLPNKQRTVVTVRDGMSVYDSLDKALKVRGLNQDCCVVYRLIKGRKTVTAWDTAIAPLDGEELIVE

± gives the uncertainty stated by the source.

Variants of B1 are the subject of this data set. As to the kind of experiment: abundance fitness (aPCA) (normalised: wild type 0, dead -1); higher = more abundant; growth selection in yeast, the domain comes from the species named. The note with it: Homo sapiens.
Turning to G33S, the abundance fitness is -0.525 ± 0.089.

As to G33T, the abundance fitness was -0.626 ± 0.2.

In the case of G33V, the abundance fitness is -0.573 ± 0.069.

Regarding Q9K, the abundance fitness was -0.042 ± 0.095.

For the variant Q9R, the abundance fitness is -0.211 ± 0.043.

With Q9I, the abundance fitness is -0.162 ± 0.094.

Take Q9M: the abundance fitness is -0.149 ± 0.082.

With Q9E, the abundance fitness is -0.008 ± 0.064.

Regarding L61Q, the abundance fitness was -0.088 ± 0.089.

In the case of L61T, the abundance fitness is -0.23 ± 0.097.

For L61H, the abundance fitness is -0.312 ± 0.13.

For L61G, the abundance fitness was -0.176 ± 0.048.

Take L61C: the abundance fitness was -0.367 ± 0.31.

As for R48A, the abundance fitness is -0.128 ± 0.06.

In the case of R48M, the abundance fitness is -0.183 ± 0.1.

For the variant R48C, the abundance fitness is -0.366 ± 0.15.

Turning to L25W, the abundance fitness was -0.971 ± 0.19.

Regarding L25F, the abundance fitness is -0.903 ± 0.24.

For the variant L25E, the abundance fitness was -0.944 ± 0.18.

For the variant L25S, the abundance fitness is -0.891 ± 0.11.

As for L25T, the abundance fitness was -0.978 ± 0.16.

Consider L29Q, for which the abundance fitness is -0.913 ± 0.23.

Consider L29M, for which the abundance fitness amounted to 0.191 ± 0.058.

In the case of L29F, the abundance fitness was -0.191 ± 0.13.

Regarding L29A, the abundance fitness was -0.933 ± 0.18.

In the case of L29E, the abundance fitness was -0.947 ± 0.13.

As to D55K, the abundance fitness is -0.347 ± 0.051.

As to D55R, the abundance fitness is -0.343 ± 0.025.

With D55E, the abundance fitness is -0.089 ± 0.036.

With K49R, the abundance fitness was -0.135 ± 0.049.

Consider K49P, for which the abundance fitness is -0.445 ± 0.092.

In the case of K49Y, the abundance fitness is -0.668 ± 0.19.

K49M: the abundance fitness is -0.22 ± 0.095.

Consider K49L, for which the abundance fitness is -0.331 ± 0.039.

For the variant K49G, the abundance fitness is -0.863 ± 0.097.

For K49S, the abundance fitness was -0.8 ± 0.11.

On to V15W, for which the abundance fitness is -0.093 ± 0.054.

Regarding V15A, the abundance fitness was -0.017 ± 0.052.

As for V15P, the abundance fitness was -0.257 ± 0.072.

Regarding K2V, the abundance fitness was -0.118 ± 0.067.

Regarding K2N, the abundance fitness is -0.139 ± 0.17.

With K8D, the abundance fitness is -0.133 ± 0.1.

For the variant K8V, the abundance fitness was -0.723 ± 0.071.

On to K8G, for which the abundance fitness came to 0.16 ± 0.033.

For A28D, the abundance fitness is -0.371 ± 0.14.

A28E: the abundance fitness was -0.195 ± 0.13.

As to A28W, the abundance fitness is -0.425 ± 0.048.

Consider A28F, for which the abundance fitness is -0.122 ± 0.27.

For the variant A28I, the abundance fitness is -0.271 ± 0.29.

Consider A28P, for which the abundance fitness is -0.15 ± 0.083.

Turning to A28Q, the abundance fitness was -0.438 ± 0.096.

Regarding V21Y, the abundance fitness was -0.033 ± 0.31.

For the variant V21F, the abundance fitness is -0.392 ± 0.12.

As to V21R, the abundance fitness was -0.864 ± 0.15.

As to V21I, the abundance fitness was -0.602 ± 0.43.

R10Q: the abundance fitness worked out at 0.036 ± 0.076.

With R10A, the abundance fitness was -0.15 ± 0.059.

Turning to R10N, the abundance fitness amounted to 0.042 ± 0.12.

Regarding R10P, the abundance fitness was -0.318 ± 0.075.

Regarding D26Y, the abundance fitness was -0.182 ± 0.14.

Regarding D26H, the abundance fitness is -0.096 ± 0.23.

Take D26K: the abundance fitness was -0.076 ± 0.083.

In the case of D26E, the abundance fitness is 0.04 ± 0.093.

Consider D26M, for which the abundance fitness is -0.119 ± 0.063.

Take G18K: the abundance fitness was -0.08 ± 0.08.

In the case of G18E, the abundance fitness was -0.25 ± 0.12.

Take G18R: the abundance fitness was -0.373 ± 0.035.

Take G18W: the abundance fitness is -0.636 ± 0.11.

As to G18I, the abundance fitness is -0.882 ± 0.23.

For the variant G18A, the abundance fitness is -0.513 ± 0.056.

Turning to G18M, the abundance fitness is -0.89 ± 0.15.

For G18V, the abundance fitness is -0.663 ± 0.064.

Regarding A53T, the abundance fitness is -0.127 ± 0.085.

In the case of A53W, the abundance fitness was -0.728 ± 0.084.

On to A53L, for which the abundance fitness is -0.455 ± 0.075.

In the case of A53M, the abundance fitness is -0.549 ± 0.14.

On to Q36P, for which the abundance fitness is -0.03 ± 0.067.

Regarding Q36E, the abundance fitness is -0.485 ± 0.3.

As for Q36C, the abundance fitness is -0.206 ± 0.12.

Take Q36L: the abundance fitness was -0.335 ± 0.072.

On to Q36V, for which the abundance fitness was -0.028 ± 0.065.

With Q36N, the abundance fitness is -0.574 ± 0.22.

In the case of C39S, the abundance fitness was -0.585 ± 0.11.

For C39I, the abundance fitness was -0.766 ± 0.27.

Regarding T52S, the abundance fitness is -0.567 ± 0.071.

In the case of T52W, the abundance fitness was -0.31 ± 0.052.

T52K: the abundance fitness is -0.356 ± 0.072.

On to T52P, for which the abundance fitness is -1.04 ± 0.2.

Consider T52Q, for which the abundance fitness was -0.317 ± 0.089.

With T52C, the abundance fitness is -0.161 ± 0.11.

Take P6G: the abundance fitness is -0.463 ± 0.28.

As to P6H, the abundance fitness was -0.683 ± 0.34.

As to P6C, the abundance fitness was -0.55 ± 0.24.

For S20Y, the abundance fitness is -0.623 ± 0.23.

As to S20N, the abundance fitness was -0.122 ± 0.098.

Turning to S20P, the abundance fitness was -0.728 ± 0.11.

On to T56G, for which the abundance fitness was -0.21 ± 0.052.

As for T56L, the abundance fitness was -0.253 ± 0.031.

Consider T56P, for which the abundance fitness is -0.614 ± 0.11.

Consider T56H, for which the abundance fitness is -0.151 ± 0.086.

For the variant T56I, the abundance fitness was -0.47 ± 0.099.

Consider T56M, for which the abundance fitness is -0.095 ± 0.039.

Y22M: the abundance fitness was -0.142 ± 0.063.

As to Y22G, the abundance fitness turned out to be 0.105 ± 0.058.

In the case of Y22P, the abundance fitness was -0.95 ± 0.19.

Turning to Y22W, the abundance fitness is -0.069 ± 0.051.

For Y22V, the abundance fitness is -0.321 ± 0.057.

For the variant Y22L, the abundance fitness was -0.04 ± 0.047.

As to Y22R, the abundance fitness came to 0.11 ± 0.05.

On to W54K, for which the abundance fitness is -0.843 ± 0.13.

Consider W54F, for which the abundance fitness was -0.89 ± 0.29.

Consider W54Q, for which the abundance fitness was -0.916 ± 0.16.

Regarding S24G, the abundance fitness turned out to be 0.149 ± 0.049.

Turning to S24P, the abundance fitness was -0.896 ± 0.21.

For the variant S24E, the abundance fitness is -0.652 ± 0.11.

Regarding S24T, the abundance fitness is -0.025 ± 0.046.

Take S24A: the abundance fitness turned out to be 0.174 ± 0.042.

As for S24C, the abundance fitness is 0.11 ± 0.093.

As to V31M, the abundance fitness is -0.045 ± 0.082.

For the variant V31T, the abundance fitness came to 0.015 ± 0.08.

For the variant V31E, the abundance fitness came out at 0.066 ± 0.067.

Turning to V31K, the abundance fitness is -0.042 ± 0.079.

In the case of E69M, the abundance fitness was -0.682 ± 0.21.

Take E69Y: the abundance fitness is -0.809 ± 0.17.

As to E69D, the abundance fitness is -0.248 ± 0.079.

Take N35H: the abundance fitness is -0.415 ± 0.37.

Take N35Y: the abundance fitness is -0.019 ± 0.21.

N35I: the abundance fitness was -0.682 ± 0.19.

Take N35M: the abundance fitness is -0.321 ± 0.081.

D17K: the abundance fitness worked out at 0.017 ± 0.065.

Consider D17G, for which the abundance fitness was -0.096 ± 0.057.

D17I: the abundance fitness is -0.221 ± 0.088.

D17P: the abundance fitness is 0.075 ± 0.057.

Take V13G: the abundance fitness is -1.06 ± 0.16.

Take E65R: the abundance fitness was -0.385 ± 0.059.

For the variant E65Q, the abundance fitness is -0.184 ± 0.14.

Consider E65I, for which the abundance fitness was -0.088 ± 0.45.

For E65G, the abundance fitness is -0.294 ± 0.072.

Turning to K46Y, the abundance fitness is -0.41 ± 0.31.

On to K46H, for which the abundance fitness was -0.259 ± 0.11.

As for K46P, the abundance fitness is -0.941 ± 0.14.

As to K46D, the abundance fitness was found to be 0.199 ± 0.2.

For the variant K46G, the abundance fitness amounted to 0.014 ± 0.039.

For N7C, the abundance fitness is -0.521 ± 0.079.

As to N7P, the abundance fitness was -0.861 ± 0.1.

On to C38M, for which the abundance fitness worked out at 0.12 ± 0.09.

Turning to C38T, the abundance fitness was -0.004 ± 0.082.

Consider C38I, for which the abundance fitness is -0.074 ± 0.1.

As to C38E, the abundance fitness stood at 0.118 ± 0.091.

On to C38Y, for which the abundance fitness was -0.082 ± 0.12.

In the case of C38Q, the abundance fitness is -0.037 ± 0.072.

For C38G, the abundance fitness was 0.038 ± 0.052.

Take V40G: the abundance fitness was -0.857 ± 0.094.

On to V40E, for which the abundance fitness is -0.253 ± 0.11.

For V40Q, the abundance fitness amounted to 0.073 ± 0.14.

Turning to V40P, the abundance fitness is -0.925 ± 0.2.

In the case of V40S, the abundance fitness is -0.321 ± 0.05.

Turning to D23N, the abundance fitness was -0.294 ± 0.19.

D23M: the abundance fitness is -0.301 ± 0.069.

For D23S, the abundance fitness is -0.145 ± 0.065.

For the variant T11P, the abundance fitness is -0.979 ± 0.19.

As for T11W, the abundance fitness is -0.652 ± 0.09.

For T11K, the abundance fitness was -0.371 ± 0.079.

As to R43H, the abundance fitness is -0.072 ± 0.42.

R43W: the abundance fitness is -0.911 ± 0.38.

In the case of V1E, the abundance fitness is -0.833 ± 0.22.

As to V1L, the abundance fitness is -0.076 ± 0.13.
